Tested on: Escherichia coli TOP10
Assay: shrunken log2 fold change of peptide-encoding DNA abundance (4.5 h post-induction vs induction); higher = less antimicrobial activity (less host growth inhibition)
Settings: time post-induction: 4.5 h; library: site-saturation at positions 5, 18, 19, 20
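Also: peptides expressed intracellularly from a pBAD plasmid library in pooled LB shake-flask culture, induced with 0.3% L-arabinose, DNA abundance read by NGS, three biological replicates, DESeq2 with apeglm shrinkage.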

| Sequence | shrunken log2 fold change |
| --- | --- |
| RRIRVRPPRLPRPRPRPMVFPRP | 0.0611 |
| RRIRVRPPRLPRPRPRPMWTPRP | -0.0192 |
| RRIRVRPPRLPRPRPRPMYTPRP | -0.23 |
| RRIRVRPPRLPRPRPRPNAAPRP | 0.0557 |
| RRIRVRPPRLPRPRPRPNADPRP | -0.00824 |
| RRIRVRPPRLPRPRPRPNAFPRP | -0.0289 |
| RRIRVRPPRLPRPRPRPNAGPRP | 0.0323 |
| RRIRVRPPRLPRPRPRPNCLPRP | -0.105 |
| RRIRVRPPRLPRPRPRPNCVPRP | -0.0661 |
| RRIRVRPPRLPRPRPRPNDGPRP | -0.133 |
| RRIRVRPPRLPRPRPRPNDNPRP | -0.481 |
| RRIRVRPPRLPRPRPRPNEEPRP | -0.00544 |
| RRIRVRPPRLPRPRPRPNFLPRP | -0.0134 |
| RRIRVRPPRLPRPRPRPNFNPRP | -0.143 |
| RRIRVRPPRLPRPRPRPNFWPRP | 0.137 |
| RRIRVRPPRLPRPRPRPNGTPRP | -0.356 |
| RRIRVRPPRLPRPRPRPNGYPRP | -0.199 |
| RRIRVRPPRLPRPRPRPNHAPRP | 0.0625 |
| RRIRVRPPRLPRPRPRPNHCPRP | -0.181 |
| RRIRVRPPRLPRPRPRPNHIPRP | -0.651 |
| RRIRVRPPRLPRPRPRPNIFPRP | -0.234 |
| RRIRVRPPRLPRPRPRPNIIPRP | -0.303 |

| Sequence | shrunken log2 fold change |
| --- | --- |
| RRIRVRPPRLPRPRPRPNILPRP | -0.426 |
| RRIRVRPPRLPRPRPRPNIRPRP | -0.664 |
| RRIRVRPPRLPRPRPRPNKDPRP | -0.448 |
| RRIRVRPPRLPRPRPRPNKSPRP | -0.348 |
| RRIRVRPPRLPRPRPRPNLHPRP | -0.239 |
| RRIRVRPPRLPRPRPRPNMAPRP | -0.38 |
| RRIRVRPPRLPRPRPRPNMFPRP | -0.103 |
| RRIRVRPPRLPRPRPRPNMHPRP | -0.332 |
| RRIRVRPPRLPRPRPRPNNLPRP | -0.534 |
| RRIRVRPPRLPRPRPRPNPAPRP | 0.31 |
| RRIRVRPPRLPRPRPRPNPCPRP | -0.461 |
| RRIRVRPPRLPRPRPRPNPTPRP | -0.325 |
| RRIRVRPPRLPRPRPRPNRDPRP | -0.0911 |
| RRIRVRPPRLPRPRPRPNSEPRP | -0.43 |
| RRIRVRPPRLPRPRPRPNSFPRP | -0.0668 |
| RRIRVRPPRLPRPRPRPNWCPRP | -0.00931 |
| RRIRVRPPRLPRPRPRPNWIPRP | -0.29 |
| RRIRVRPPRLPRPRPRPNYFPRP | -0.303 |
| RRIRVRPPRLPRPRPRPNYMPRP | -0.923 |
| RRIRVRPPRLPRPRPRPNYPPRP | -0.515 |
| RRIRVRPPRLPRPRPRPNYSPRP | -0.438 |
| RRIRVRPPRLPRPRPRPPASPRP | 0.398 |

| Sequence | shrunken log2 fold change |
| --- | --- |
| RRIRVRPPRLPRPRPRPPCCPRP | 0.117 |
| RRIRVRPPRLPRPRPRPPDEPRP | 0.621 |
| RRIRVRPPRLPRPRPRPPDIPRP | 0.248 |
| RRIRVRPPRLPRPRPRPPEFPRP | 0.265 |
| RRIRVRPPRLPRPRPRPPEQPRP | 0.0662 |
| RRIRVRPPRLPRPRPRPPGAPRP | 0.595 |
| RRIRVRPPRLPRPRPRPPGSPRP | 0.342 |
| RRIRVRPPRLPRPRPRPPHVPRP | 0.283 |
| RRIRVRPPRLPRPRPRPPIDPRP | 0.0721 |
| RRIRVRPPRLPRPRPRPPIFPRP | -0.067 |
| RRIRVRPPRLPRPRPRPPITPRP | -0.117 |
| RRIRVRPPRLPRPRPRPPKVPRP | 0.392 |
| RRIRVRPPRLPRPRPRPPLIPRP | 1.02 |
| RRIRVRPPRLPRPRPRPPMGPRP | 0.254 |
| RRIRVRPPRLPRPRPRPPMMPRP | -0.0474 |
| RRIRVRPPRLPRPRPRPPNDPRP | -0.17 |
| RRIRVRPPRLPRPRPRPPNHPRP | -0.0404 |
| RRIRVRPPRLPRPRPRPPNYPRP | -0.194 |
| RRIRVRPPRLPRPRPRPPRPPRP | 0.648 |
| RRIRVRPPRLPRPRPRPPSRPRP | 0.743 |
| RRIRVRPPRLPRPRPRPPTCPRP | 0.141 |
| RRIRVRPPRLPRPRPRPPVPPRP | 0.35 |

| Sequence | shrunken log2 fold change |
| --- | --- |
| RRIRVRPPRLPRPRPRPPYRPRP | -0.0303 |
| RRIRVRPPRLPRPRPRPPYSPRP | -0.384 |
| RRIRVRPPRLPRPRPRPQACPRP | 1.56 |
| RRIRVRPPRLPRPRPRPQAGPRP | 0.0465 |
| RRIRVRPPRLPRPRPRPQCLPRP | -0.0868 |
| RRIRVRPPRLPRPRPRPQDCPRP | -0.172 |
| RRIRVRPPRLPRPRPRPQDHPRP | -0.253 |
| RRIRVRPPRLPRPRPRPQDTPRP | -0.64 |
| RRIRVRPPRLPRPRPRPQEHPRP | -0.251 |
| RRIRVRPPRLPRPRPRPQFNPRP | -0.389 |
| RRIRVRPPRLPRPRPRPQFYPRP | -0.806 |
| RRIRVRPPRLPRPRPRPQHCPRP | 0.0856 |
| RRIRVRPPRLPRPRPRPQHRPRP | 0.0105 |
| RRIRVRPPRLPRPRPRPQIRPRP | -0.305 |
| RRIRVRPPRLPRPRPRPQKCPRP | -0.0983 |
| RRIRVRPPRLPRPRPRPQLLPRP | -0.0606 |
| RRIRVRPPRLPRPRPRPQLSPRP | 0.132 |
| RRIRVRPPRLPRPRPRPQMHPRP | -0.175 |
| RRIRVRPPRLPRPRPRPQMIPRP | -0.425 |
| RRIRVRPPRLPRPRPRPQNFPRP | -0.0453 |
| RRIRVRPPRLPRPRPRPQRFPRP | -0.163 |
| RRIRVRPPRLPRPRPRPQRIPRP | -0.544 |

| Sequence | shrunken log2 fold change |
| --- | --- |
| RRIRVRPPRLPRPRPRPQRLPRP | 0.275 |
| RRIRVRPPRLPRPRPRPQRNPRP | -0.0128 |
| RRIRVRPPRLPRPRPRPQSHPRP | -0.613 |
| RRIRVRPPRLPRPRPRPQTAPRP | 0.0297 |
| RRIRVRPPRLPRPRPRPQTIPRP | -0.127 |
| RRIRVRPPRLPRPRPRPQTKPRP | 0.0433 |
| RRIRVRPPRLPRPRPRPQTMPRP | -0.689 |
| RRIRVRPPRLPRPRPRPQWAPRP | -0.0201 |
| RRIRVRPPRLPRPRPRPQWRPRP | -0.0106 |
| RRIRVRPPRLPRPRPRPQYWPRP | -0.265 |
| RRIRVRPPRLPRPRPRPRCMPRP | -0.23 |
| RRIRVRPPRLPRPRPRPRCRPRP | -0.0394 |
| RRIRVRPPRLPRPRPRPRDDPRP | -0.104 |
| RRIRVRPPRLPRPRPRPRDEPRP | 2.79 |
| RRIRVRPPRLPRPRPRPRDGPRP | 1.09 |
| RRIRVRPPRLPRPRPRPRDRPRP | 0.46 |
| RRIRVRPPRLPRPRPRPREKPRP | 0.179 |
| RRIRVRPPRLPRPRPRPRFCPRP | -0.0488 |
| RRIRVRPPRLPRPRPRPRFMPRP | -0.459 |
| RRIRVRPPRLPRPRPRPRGDPRP | 0.754 |
| RRIRVRPPRLPRPRPRPRITPRP | -0.11 |
